# Patent US5880093A, “Use of parathormone, its biologically active fragments and correlated peptides, for the preparation of pharmaceutical compositions useful for the treatment of pregnancy” (priority 1992, dated 1999)
# Entries after “also recorded” stand apart in the source; their conditions may differ.
# What was measured:
# uterine contractions = assay: clinical observation of pregnant women with symptoms of likely premature birth (cardiotocography, arterial pressure, heart rate); assay type: in vivo, human
# Procedure: Three pregnant women having symptoms indicating the likelihood of premature birth have been observed while in their 34-36th week of pregnancy. […] Arterial pressure, heart rate and skin coloring were evaluated. The women were clearly aware of the contractions and of the pain caused by such contractions.
# The women were administered 100 Units of synthetic Parathormone 1-34 (two vials according to Examples 1 and 2) by rapid infusion (10 minutes), diluted in 200 cc of physiological solution. Two blood samples were taken before and after infusion and the serum was frozen and stored at -20° C. for the evaluation of the mineral elements (calcium, phosphorous, magnesium, alkaline phosphatase, parathormone, progesterone, estradiol).
# human myometrium = assay: in vitro motility of fragments of myometrium of pregnant women, contraction induced by oxytocin; conditions: PTH 8.5×10^-8 M, oxytocin 1×10^-2 U, myometrium taken during Caesarean birth, FIG. 2 vs FIG. 1
# Text: Experimental Trials on the in vitro motility of fragments of myometrium of pregnant women
# [1] = tested on: contractions induced by PGF2alpha; assay: contractions induced by PGF2alpha; assay type: in vivo; conditions: PGF2alpha 1 mg/kg; PTH 4×10^-4 mg/Kg; FIG. 4 vs FIG. 3
# Text: Furthermore. Parathormone, has also been essayed for the contractions induced by PGF2alpha according to the technique described in the British Journal of Pharmacology 93: 185-191 (1988).
# rat uterus = conditions: in vitro, studies reported in the literature; cited from earlier work
# [2] = three pregnant women, 34-36th week, 100 Units by rapid infusion (10 minutes)
molecule,measurement,setting,value
Parathormone 1-34,arterial pressure and heart rate of the mother,uterine contractions; 100 Units by rapid infusion,did not show variations of worthwhile note
same,patient-reported uterine contractions and pain caused by the contractions,"uterine contractions; 100 Units by rapid infusion, pain particularly in the lumbar-sacral region",immediate disappearance of uterine contractions and of pain
same,fetal heart beat,"uterine contractions; cardiotocography, 40 minutes monitoring, 100 Units by rapid infusion, FIG. 5",did not show variations and remained within the normal limits
same,cardiotocography waves referring to uterine contractions,"uterine contractions; period of monitoring 40 minutes, 100 Units by rapid infusion, FIG. 5",disappearance of waves referring to uterine contractions
same,efficacy on uterine contractility,uterine contractions; [2],efficacy of Parathormone on uterine contractility
same,side effects in mother and fetus,uterine contractions; [2],no side effects have been noted either in the mother or the fetus; also recorded: no side effects were noted in relation to the infusion of the drug
"Parathormone (protein, UniProt P01270 32-115, looked up, Parathyroid hormone, intact (whole) human parathyroid hormone) Parathyroid hormone: SVSEIQLMHNLGKHLNSMERVEWLRKKLQDVHNFVALGAPLAPRDAGSQRPRKKEDNVLVESHEKSLGEADKADVNVLTKAKSQ",effect on contraction of human myometrium induced by oxytocin,human myometrium,net inhibitory effect
same,effect on contraction of human myometrium induced by oxytocin,human myometrium; listed as intact human parathormone,inhibitory effect (flat trace)
same,effect on contractions induced by PGF2alpha (intensity and duration),[1],clear inhibitory effect both in terms of intensity and duration
same,"action on contractility of the rat uterus induced by oxytocin, acetylcholine and prostaglandin",rat uterus,inhibitory action
